The target of one assay is biotin-Vpr52-96 (HIV-1) (UniProt P69726). As to the kind of experiment: SPR, Langmuir isotherm, ANT104-116 on biotinylated Vpr52-96.
The target of assay [1] is T1, adenine nucleotide translocator (ANT), purified native protein (rat, UniProt Q05962 2-298).
T1 construct: mature; Used detergent-solubilized (SPR), reconstituted in liposomes or planar bilayers, or inside mitochondria (pull-down); also called adenine nucleotide translocase; ADP/ATP carrier
T1 sequence: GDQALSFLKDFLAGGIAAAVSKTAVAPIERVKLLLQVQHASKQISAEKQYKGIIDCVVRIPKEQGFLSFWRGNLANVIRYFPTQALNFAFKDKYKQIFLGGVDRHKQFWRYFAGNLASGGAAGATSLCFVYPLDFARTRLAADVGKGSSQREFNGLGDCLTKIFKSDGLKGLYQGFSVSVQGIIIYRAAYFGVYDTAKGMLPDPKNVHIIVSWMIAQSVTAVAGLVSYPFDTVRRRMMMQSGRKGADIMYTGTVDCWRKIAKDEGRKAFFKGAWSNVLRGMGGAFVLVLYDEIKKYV
As to the kind of experiment: not stated (summary of the inventors' findings).

For assay [2], the target named is T1, adenine nucleotide translocator (ANT), …. As to the kind of experiment: SPR, ANT over immobilized Vpr52-96. (In general: Surface plasmon resonance follows binding to a sensor surface in real time, without labels.)

Where no end group is shown, it is not given here.

Here are results for 3 molecules from patent publication US20020068273A1 (published 2002).

Turning to ANT-2-derived peptide ANT104-116, the Kd – broadly, the free concentration of one partner at which half of the binding sites on the other are occupied at equilibrium, for simple one-to-one binding – with biotin-Vpr52-96 (HIV-1) was found to be 35000 nM.

B1: Vpr protein of HIV-1 (14 Kd; 96 aa) (other)
chain: MEQAPEDQGPQREPHNEWTLELLEELKNEAVRHFPRIWLHGLGQHIYETYGDTWAGVEAIIRILQQLLFIHFRIGCRHSRIGVTRQRRARNGASRS
notes: also called HIV-1 Viral protein R
Molecule B1 gave a Kd in assay [1] of 1 nM.

B2: biotin-Vpr52-96 (peptide)
peptide: DTWAGVEAIIRILQQLLFIHFRIGCRHSRIGVTRQRRARNGASRS
modifications: also: biotin, position not given here
notes: range 52-96; Synthetic biotinylated peptide, immobilized for SPR and used as bait in the avidin-agarose pull-down; also called biotinylated Vpr52-96; immobilized Vpr C-terminal moiety
As for B2, binding in assay [2] was characterised by a dissociation constant (Kd) of 9.7 nM.
